Measurements reported in the DeepSol protein solubility set.

Assay: soluble on expression in E. coli; label from the status in PepcDB or PDB records
With “MAHHHHHHMIADDMGLGKTVQALAVAHHYRNEWPVLIVCPLSLVENWTKELMRFCSIPIGRIAIFQNSKVRVTDVHSAVIVPYSSLKSLDTQSTTFQVVILDESHYIKTVDSKRTVAALKLCRVARRVLLLSGTPTLSRPIELYPQLQTIMHPSWTPSKSLFAARYCNAFVGRFGVDYLGHSHMSELHVLLQQFVIRRTKRELGNELPSKIRQLLYVYITPKEKKALEKSVSALRNSFRDGATLPTLGDVASTTNMAQGTGGNLTTCTAGGVTATRNMTAFDLKIATARAKIAAVQDYVKSTTEQMVESGQKVIIFAHHQCMMEAIREAVESVQPKQPLDYIYITGETPAAQREALTTHFRTSTNCHVAVLSMHSCGVGHNLTCATMVVFAELDWNPSTHLQCEDRVHRMGQSSACVIKYLLAEGTSDSVIWPMLQTKLNVTHAVLEDSQAGGEGWSAGADTRRILRSDVPLTPSSPEKKQLTLEGFLSHSGSRPSRPLTQSSDSNAEVLKTSDESPRADTSPDTPFQSPSAVAPAENVLFDIAKLRQQREARKVFHSMPVLGTAGAGSSPVAAVTVTPPPPQIQRQVTLHEVLTNHPANSPTPKNSPQQRTNFHVAVAAKSFNERSGAAHTSSCSSETTVCAPIVSHPVKTLFLTRPASANSSSAASSVKPHAGASAADLSVFSTASKEGSICLAPSPRSEEIRRYNARRTPFILGSTLEKRLRPDDMEDQVS” the “soluble on expression in E. coli” value was “not soluble”.
In the case of “KLGTSTGEFTGSNQTTQPTAIMELINKVQKDAANAQLSIAAPLSSSAYIPKGDVTIKDIMSVYVYENYLYGIKMTGKQLKDWLEYSVRYYKQVSSPNDSIAKDPALNVPDYNLDQLYGATYDIDLTQPACTIDPSTGRIASGDRIKNLKINGVPIKDSDVFTVAINDYRYNGGGGFMKAAGISNTDPSIVTYSSAKALGDDGQVRSLMQSYIKNNQTISPENSNNWKLYTT”, the “soluble on expression in E. coli” value is reported as “not soluble”.
For “MGSDKIHHHHHHVHACGAETAPRCVTSYPFAQMPTAQTKKEKRPPASIESRIAECYDELSEIDQRLADVILSAPGQLAMQTATELASSAQVSKATATRFFQKLGYASYDDARAIARAAQVGGSPLYLQDRGRKTAGSKLDDVIQRHLQHEVENMANTYRSLDTQVLSEVVDAIAQARRVAIIGYRHSYTVATMIRRELIQVRSDVMLLPAPGDTIGEYLADLNAKDLAIVIGLRRRVPAVGLATAALAEAGVPVVYMSDVIAGKPARLARWVIRCHTDGLMLFDSKAGMTAVVNLICSLVAERVLDRSNSHLQRVEVLHDSLRELE”, the “soluble on expression in E. coli” value was “not soluble”.
For “MSDVMADRTPPHNIEAEQAVLGAILIDQDALTSASELLVPDSFYRTKHQKIFEVMLGLSDKGEPIDLVMMTSAMADQGLLEEVGGVSYLAELAEVVPTAANVEYYARIIAEKALLRRLIRTATHIVSDGYEREDDVDGLLNEAEKKILEVSHQTNAKAFQNIKDVLVDAYDKIELLHNQKGEVTGIPTGFTELDKMTAGFQRNDLIIVAARPSVGKTAFSLNIAQNVATKTDENVAIFSLEMGADQLVMRMLCAEGNIDAQRLRTGSLTSDDWAKLTMAMGSLSNAGIYIDDTPGIKVNEIRAKCRRLKQEQGLGMILIDYLQLIQGSGKSGENRQQEVSEISRTLKGIARELQVPVIALSQLSRGVESRQDKRPMMSDIRESGSIEQDADIVAFLYREDYYDRETENKNTIEIIIAKQRNGPVGSVELAFVKEFNKFVNLERRFEDGHAPPA”, the “soluble on expression in E. coli” value was “not soluble”.
In the case of “MPAQPNPEQRDWLEALNAGDATMGESRLFERDGTWYLHVTATRDVEERSDVSAEERTPIGVDIGEASLATVCHRDGHGSPTAPELWADEGKTVRRLRKTYFTATRRLQTRGSERIVESFGDDIWDQIDDVFHRVTREVVEYAESVENPVLVLEDLTYIRESMDYGEYMNRRLHGWGFAKLHAQIRYKAVEKGIPVETVNPCNTSKECHACGEVGYRPRQATFKCTNDACWMGESQADVNGAINIADRYLSGESHSREHTDGDDSAGDGGRLTAPQDTLADATTQETLGTYAS”, the “soluble on expression in E. coli” value is reported as “soluble”.
In the case of “MEVQTETYRAAMNGTLERHFSDMIAVIPTRITIEQLKQRLENIATKVDELKIVYSDETSLIVELHMDETIIPYELHIDEANDPEEYKMYNRQDSTIVDRNFEDAAFGTEIFTRTLFVGDVLDCFFQQIQFLWNLAPDLLFVIDSSAAMKVISRNYIEYHVENELLPDIPDLYVIHSVYEDDKEGEPTQYWFHTHGLLRAGVTEIELIIPNRISSYYGIGDLFQTFANNAVENGQVPMNEPIVIAHSQQGSIHTVAVPWEKGLSYIGHKTSMDQLSSIEDEEVKLQPIDAQNTFLGGMDARDEYHQSPSVLLFKFNTSEEYIESFFKEHEEATGLMFYKTNSETDRMAYNAKNTFGYFSNIFQIEKSNEEFRFLAKFGVSYEEGKSEHMWFEMQHITEDLIQGILINEPYFIEDMSEGNSYHLDFDNLTDWVIYAGDAVIKPNNLYMFIGE”, the “soluble on expression in E. coli” value is reported as “not soluble”.
With “MKVLVVGNGGREHAIAWKVAQSPLVKELYVAKGNAGIWEIAKRVDISPTDVEKLAEFAKNEGVDFTIVGPEAPLVEGIVDEFEKRGLKIFGPNKEAAKLEGSKAFAKTFMKKYGIPTARYEVFTDFEKAKEYVEKVGAPIVVKADGLAAGKGAVVCETVEKAIETLDRFLNKKIFGKSSERVVIEEFLEGEEASYIVMINGDRYVPLPTSQDHKRLLDEDKGPNTGGMGAYSPTPVINEEVEKRIREEIVERVIKGLKEEGIYYRGFLYAGLMITKEGPKVLEFNVRLGDPEAQPILMRVKNDFLETLLNFYEGKDVHIKEDERYALDVVLASRGYPEKPETGKIIHGLDYLKSMEDVVVFHAGTKKEGNFTVTSGGRVLNVCAYGKTLKEAKERAYEAIRYVCFEGMHYRKDIGDKAFKYLSE” the “soluble on expression in E. coli” value was “soluble”.
For “LGGVFKKAGSKGLKGVRLVISDAHEGLKAAIKKILTGSAWQRCRVHFMRNVLSQVPKHYQGMVSSIIRTIFAQNDQESAREQLRHVVDELKNRFPKAMKILEEAEEEILAYMAFPREHWAQIHSTNPLERLNREIRRRTDVVCIFPNREAVIRLVGAMLMEQNDEWKVGRRYFSLESMSKITSINEFTLTPVALLHK”, the “soluble on expression in E. coli” value was “soluble”.
For “MGSDKIHHHHHHMQSGMYVSLSSQRALDKRLTTIADNMANVNTVGFRGTEVKFDEVVSRTGNDQNAKIAFVSQGNDYLNTQSGEMLQTGGTLDFAVKGDAWFSIDTPAGPALTRDGRFTMTSTGQLVSVRGYSVLDAGGGPIQLDPNGGEPHVGADGTINQNGRQISQIGLFTADISKGYLRTENSGVITTDRPQAVVDDATIGVMQGYVEQSNVNGISQMTQLIQVSRAFESISASMSQTENSMSETIKTLGGSK”, the “soluble on expression in E. coli” value was “not soluble”.
In the case of “MRGSHHHHHHGSACELGTMPHIDNDVKLDFKDVLLRPKRSTLKSRSEVDLTRSFSFRNSKQTYSGVPIIAANMDTVGTFEMAKVLCKFSLFTAVHKHYSLVQWQEFAGQNPDCLEHLAASSGTGSSDFEQLEQILEAIPQVKYICLDVANGYSEHFVEFVKDVRKRFPQHTIMAGNVVTGEMVEELILSGADIIKVGIGPGSVCTTRKKTGVGYPQLSAVMECADAAHGLKGHIISDGGCSCPGDVAKAFGAGADFVMLGGMLAGHSESGGELIERDGKKYKLFYGMSSEMAMKKYAGGVAEYRASEGKTVEVPFKGDVEHTIRDILGGIRSTCTYVGAAKLKELSRRTTFIRVTQQVNPIFSEAC”, the “soluble on expression in E. coli” value is reported as “soluble”.
For “SLRTEQEMMDVILTIAKKEERIRAVYMNGSRTNSNVPKDLFQDYDIVYVVTDIAPFIQEQQWLKKFGEPLMIQEPDQLDAGIGVNRDFSRRYAFLMLFTDGNRIDLTLQTKETMREVYENDTLTVPLLDKDHCLPPIPPPSDSDYHVKEPTEGEFISCTNNFWWCLQNVAKGIWRDELPYAKQMFELTTRASLDEMVNWWIGLENDFQLSTGKLGKYFKKHLPPPYWAMYEATYANSDYEQMWESIFIACDLFRTLAKDVAAACSFTYPETDDRNMTDYLHRVKNLSADATDM”, the “soluble on expression in E. coli” value was “soluble”.
With “FVKSGWLLRQSTILKRWKKNWFDLWSDGHLIYYDDQTRQSIEDKVHMPVDCINIRTGHECRDIQPPDGKPRDCLLQIVCRDGKTISLCAESTDDCLAWKFTLQDSRT” the “soluble on expression in E. coli” value was “soluble”.
For “MAELPKTLEEAITQSREAVKSALADGVTRIQVDFLFPELKFMPVAEQFVPLFAEYESRVKVFFADAGAAALARRDWQNVPFKVEDIGTGRAASLQTKIQPEDEIFLFIAPTPVEVPQLEKMCEIIDTRPIVLLNPRLEDSGVVGIGYAARETRRRFISTIESCYYLRPVDDESALFRCYPGQWEVWLESNNEYEKIAELPKRPSGDEIDMILMKGQPAKPSEGTPAKKP”, the “soluble on expression in E. coli” value was “soluble”.
In the case of “MAEDIFRVATVEDAPEFLELLSSAFKSVKELGIDWPSTNADLAMVTENIVNSSAFVLERNGKLISTITVRFPWESSSPPSKYPFVWWFATAPELAGQGIGDKLLTYVEERVLRDTLKAPALTLGTSARKHPWLLDMYLRRGYEVYFEHEEDGDVGVMMRKILIPEKFDATLLGIPSWT”, the “soluble on expression in E. coli” value is reported as “not soluble”.
With “ATLHSFVLVDNGGTGNVTVVPVSNANGVAEWLSNNSRSQAYRVTASYRASGADKRKYTIKLEVPKIVTQVVNGVELPVSAWKAYASIDLTIPIFAATDDVTVISKSLTGLFKVGNPIAEAISSQSGFYA” the “soluble on expression in E. coli” value was “soluble”.
In the case of “SLNGKYATLKDVAKLAGTTASTVSYVLNDSKERYISDEMRRRVLEAAKDLNYVKCSVASSLKGEKRKIIAVLVPQFSNQFFTRIILAIENVADQFDYVLTIYNTFDDPKREKVIINRMAQHRMDGYIIIPTYEGVKNTEQLRKIGIPMVVMDRPLEGIDDFIWVTTNNYQCGYKGAHYLALKGHRNIAFIGWNSRINDLDSRKNGFWDALAASGITSEEAIVIDGEFSEEDGYKMTKNLLKTRPDITAIFYGYNVQAQGGVRYLMKENIEIGKDISVMLIGSPEWAVTGYNNFTHIEQDEYNLGKSAATILFSIINGENQENIQNIIQDCSLYEGNSVYDITKEG”, the “soluble on expression in E. coli” value is reported as “soluble”.
For “MAHHHHHHMSLMDCKYHKHHLYADKFWWSPSPETNHMRGDAEFKWKGNELIAYGDYNAHMQHPANFVTSSSSGSSGSGAATSKSAAAAAGSKKGASARPWFRRTVVVRKSQASDTKPLSTASKIAAAGTSK”, the “soluble on expression in E. coli” value was “not soluble”.
With “MSLAQIDFRKKINWHRRYRSPQGVKTEHEILRIFESDRGRIINSPAIRRLQQKTQVFPLERNAAVRTRLTHSMEVQQVGRYIAKEILSRLKELKLLEAYGLDELTGPFESIVEMSCLMHDIGNPPFGHFGEAAINDWFRQRLHPEDAESQPLTDDRCSVAALRLRDGEEPLNELRRKIRQDLCHFEGNAQGIRLVHTLMRMNLTWAQVGGILKYTRPAWWRGETPETHHYLMKKPGYYLSEEAYIARLRKELNLALYSRFPLTWIMEAADDISYCVADLEDAVEKRIFTVEQLYHHLHEAWGQHEKGSLFSLVVENAWEKSRSNSLSRSTEDQFFMYLRVNTLNKLVPYAAQRFIDNLPAIFAGTFNHALLEDASECSDLLKLYKNVAVKHVFSHPDVERLELQGYRVISGLLEIYRPLLSLSLSDFTELVEKERVKRFPIESRLFHKLSTRHRLAYVEAVSKLPSDSPEFPLWEYYYRCRLLQDYISGMTDLYAWDEYRRLMAVEQEGHHHHHH” the “soluble on expression in E. coli” value was “soluble”.
For “MRFRPFTEEDLDRLNRLAGKRPVSLGALRFFARTGHSFLAEEGEEPMGFALAQAVWQGEATTVLVTRMEGRSVEALRGLLRAVVKSAYDAGVYEVALHLDPERKELEEALKAEGFALGPLVLAVRVLGSRGARGETRGVLE”, the “soluble on expression in E. coli” value was “soluble”.
In the case of “MSNHIDRDVINALIAGHFADPFSVLGMHRTDAGLEVRALLPDATDVWVIEPKTGRKVGKLECLDSRGFFSGVLPRRKNAFRYQLAVTWHGQQNLIDDPYRFGPLLQ”, the “soluble on expression in E. coli” value is reported as “not soluble”.
With “EFVGRGIGNSVREDLSFNLLLSSDMDETQAQELQRQIAATPFVKDVSYISADQALEEMKKELGEDDPAKMLGYNPLQAEMCVHLKAQYTHPDSLKTIDSAIRTWNGVDNLEYRADMFDIVHRNTRR” the “soluble on expression in E. coli” value was “not soluble”.
For “MNLFYNPKYVGDVAFLQIEPVEGELNYNKKGNVVEITNEGNVVGYNIFEISKDITIEEKGHIKLTDELVNVFQKRISEAGFDYKLNADLSPKFVVGYVETKDKHPDADKLSVLNVNVGNDTLQIVCGAPNVEAGQKVVVAKVGAVMPSGMVIKDAELRGVASSGMICSMKELNLPNAPEEKGIMVLNDSYEIGQAFFELEHHHHHH”, the “soluble on expression in E. coli” value was “soluble”.
